From PMC3193277 come the findings set out here.

The target of the data set is 6xHis-p53 (UniProt P04637 1-393). The experiment in a line: EMSA.
6xHis-p53, sequence (P04637 whole entry): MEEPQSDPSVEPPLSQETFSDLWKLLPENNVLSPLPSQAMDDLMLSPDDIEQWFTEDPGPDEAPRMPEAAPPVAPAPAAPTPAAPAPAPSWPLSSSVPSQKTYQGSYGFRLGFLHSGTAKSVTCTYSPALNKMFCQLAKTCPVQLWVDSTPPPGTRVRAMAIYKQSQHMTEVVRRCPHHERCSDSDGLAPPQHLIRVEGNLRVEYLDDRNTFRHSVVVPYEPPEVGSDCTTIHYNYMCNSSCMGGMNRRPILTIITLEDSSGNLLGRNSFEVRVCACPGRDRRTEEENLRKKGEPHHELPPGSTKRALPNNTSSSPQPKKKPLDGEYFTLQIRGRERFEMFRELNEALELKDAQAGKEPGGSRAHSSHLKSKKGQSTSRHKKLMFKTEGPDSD

B1: GADD45 probe (intron 3 p53RE) (dsDNA)
DNA 1: GTAGCTGATATCGAATTCTCGAGCAGAACATGTCTAAGCATGCTGGGCTCGAGAATTCCTGCAGCC
DNA 2: GGCTGCAGGAATTCTCGAGCCCAGCATGCTTAGACATGTTCTGCTCGAGAATTCGATATCAGCTAC
Turning to B1, the binding result is given as “binds”.
